Test results: patent US20260049138A1 (Chugai, published 2026)

Biological target: T1, CD3ε homodimer protein (human, UniProt P07766 23-126, limits assumed, sulfo-tag or biotin label in the ECL assays; amine-coupled to the chip in SPR)
T1 construct: also called human CD3ε homodimer protein; CD3 (CD3ε)
Experiment: SPR Biacore T200; CD3ε homodimer on CM4 chip;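 note: Single-residue variant antibodies injected as analyte over CD3ε homodimer immobilized by amine coupling, run at 25 °C in HBS-EP+ buffer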

T1 sequence (P07766 23-126 limits assumed): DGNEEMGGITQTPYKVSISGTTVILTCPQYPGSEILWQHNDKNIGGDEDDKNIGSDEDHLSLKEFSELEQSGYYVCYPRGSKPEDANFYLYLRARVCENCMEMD

Binder | ratio of amounts bound Z=Y/X (altered form / CE115HA000)
CE115HA000 N54G one-arm antibody (antibody, human IgG1, kappa, L234A L235A, N297A, name in Kabat numbering) heavy: QVQLVESGGGVVQPGRSLRLSCAASGFTFSNAWMHWVRQAPGKGLEWVAQIKAKSNGYATYYAESVKGRFTISRDDSKNSLYLQMNSLKTEDTAVYYCRYVHYGAYYGVDAWGQGTTVTVSSASTKGPSVFPLAPSSKSTSGGTAALGCLVKDYFPEPVTVSWNSGALTSGVHTFPAVLQSSGLYSLSSVVTVPSSSLGTQTYICNVNHKPSNTKVDKKVEPKSCDKTHTCPPCPAPEAAGGPSVFLFPPKPKDTLMISRTPEVTCVVVDVSHEDPEVKFNWYVDGVEVHNAKTKPREEQYASTYRVVSVLTVLHQDWLNGKEYKCKVSNKALPAPIEKTISKAKGQPREPQVYTLPPSRCELTKNQVSLSCAVKGFYPSDIAVEWESNGQPENNYKTTPPVLDSDGSFFLVSKLTVDKSRWQQGNVFSCSVMHEALHNHYTQKSLSLSPDYKDDDDK EPKSSDKTHTCPPCPAPELLGGPSVFLFPPKPKDTLMISRTPEVTCVVVDVSHEDPEVKFNWYVDGVEVHNAKTKPREEQYNSTYRVVSVLTVLHQDWLNGKEYKCKVSNKALPAPIEKTISKAKGQPREPQVCTLPPSRDELTKNQVSLWCLVKGFYPSDIAVEWESNGQPENNYKTTPPVLDSDGSFFLYSKLTVDKSRWQQGNVFSCSVMHEALHNRYTQKSLSLSP light: DIVMTQSPLSLPVTPGEPASISCRSSQSLVHSNRNTYLHWYQQKPGQAPRLLIYKVSNRFSGVPDRFSGSGSGTDFTLKISRVEAEDVGVYYCGQGTQVPYTFGQGTKLEIKRTVAAPSVFIFPPSDEQLKSGTASVVCLLNNFYPREAKVQWKVDNALQSGNSQESVTEQDSKDSTYSLSSTLTLSKADYEKHKVYACEVTHQGLSSPVTKSFNRGEC | 0.98
CE115HA000 N54Y one-arm antibody (antibody, human IgG1, kappa, L234A L235A, N297A, name in Kabat numbering) heavy: QVQLVESGGGVVQPGRSLRLSCAASGFTFSNAWMHWVRQAPGKGLEWVAQIKAKSNYYATYYAESVKGRFTISRDDSKNSLYLQMNSLKTEDTAVYYCRYVHYGAYYGVDAWGQGTTVTVSSASTKGPSVFPLAPSSKSTSGGTAALGCLVKDYFPEPVTVSWNSGALTSGVHTFPAVLQSSGLYSLSSVVTVPSSSLGTQTYICNVNHKPSNTKVDKKVEPKSCDKTHTCPPCPAPEAAGGPSVFLFPPKPKDTLMISRTPEVTCVVVDVSHEDPEVKFNWYVDGVEVHNAKTKPREEQYASTYRVVSVLTVLHQDWLNGKEYKCKVSNKALPAPIEKTISKAKGQPREPQVYTLPPSRCELTKNQVSLSCAVKGFYPSDIAVEWESNGQPENNYKTTPPVLDSDGSFFLVSKLTVDKSRWQQGNVFSCSVMHEALHNHYTQKSLSLSPDYKDDDDK EPKSSDKTHTCPPCPAPELLGGPSVFLFPPKPKDTLMISRTPEVTCVVVDVSHEDPEVKFNWYVDGVEVHNAKTKPREEQYNSTYRVVSVLTVLHQDWLNGKEYKCKVSNKALPAPIEKTISKAKGQPREPQVCTLPPSRDELTKNQVSLWCLVKGFYPSDIAVEWESNGQPENNYKTTPPVLDSDGSFFLYSKLTVDKSRWQQGNVFSCSVMHEALHNRYTQKSLSLSP light: DIVMTQSPLSLPVTPGEPASISCRSSQSLVHSNRNTYLHWYQQKPGQAPRLLIYKVSNRFSGVPDRFSGSGSGTDFTLKISRVEAEDVGVYYCGQGTQVPYTFGQGTKLEIKRTVAAPSVFIFPPSDEQLKSGTASVVCLLNNFYPREAKVQWKVDNALQSGNSQESVTEQDSKDSTYSLSSTLTLSKADYEKHKVYACEVTHQGLSSPVTKSFNRGEC | 1.03
CE115HA000 N54Q one-arm antibody (antibody, human IgG1, kappa, L234A L235A, N297A, name in Kabat numbering) heavy: QVQLVESGGGVVQPGRSLRLSCAASGFTFSNAWMHWVRQAPGKGLEWVAQIKAKSNQYATYYAESVKGRFTISRDDSKNSLYLQMNSLKTEDTAVYYCRYVHYGAYYGVDAWGQGTTVTVSSASTKGPSVFPLAPSSKSTSGGTAALGCLVKDYFPEPVTVSWNSGALTSGVHTFPAVLQSSGLYSLSSVVTVPSSSLGTQTYICNVNHKPSNTKVDKKVEPKSCDKTHTCPPCPAPEAAGGPSVFLFPPKPKDTLMISRTPEVTCVVVDVSHEDPEVKFNWYVDGVEVHNAKTKPREEQYASTYRVVSVLTVLHQDWLNGKEYKCKVSNKALPAPIEKTISKAKGQPREPQVYTLPPSRCELTKNQVSLSCAVKGFYPSDIAVEWESNGQPENNYKTTPPVLDSDGSFFLVSKLTVDKSRWQQGNVFSCSVMHEALHNHYTQKSLSLSPDYKDDDDK EPKSSDKTHTCPPCPAPELLGGPSVFLFPPKPKDTLMISRTPEVTCVVVDVSHEDPEVKFNWYVDGVEVHNAKTKPREEQYNSTYRVVSVLTVLHQDWLNGKEYKCKVSNKALPAPIEKTISKAKGQPREPQVCTLPPSRDELTKNQVSLWCLVKGFYPSDIAVEWESNGQPENNYKTTPPVLDSDGSFFLYSKLTVDKSRWQQGNVFSCSVMHEALHNRYTQKSLSLSP light: DIVMTQSPLSLPVTPGEPASISCRSSQSLVHSNRNTYLHWYQQKPGQAPRLLIYKVSNRFSGVPDRFSGSGSGTDFTLKISRVEAEDVGVYYCGQGTQVPYTFGQGTKLEIKRTVAAPSVFIFPPSDEQLKSGTASVVCLLNNFYPREAKVQWKVDNALQSGNSQESVTEQDSKDSTYSLSSTLTLSKADYEKHKVYACEVTHQGLSSPVTKSFNRGEC | 0.84
CE115HA000 N54K one-arm antibody (antibody, human IgG1, kappa, L234A L235A, N297A, name in Kabat numbering) heavy: QVQLVESGGGVVQPGRSLRLSCAASGFTFSNAWMHWVRQAPGKGLEWVAQIKAKSNKYATYYAESVKGRFTISRDDSKNSLYLQMNSLKTEDTAVYYCRYVHYGAYYGVDAWGQGTTVTVSSASTKGPSVFPLAPSSKSTSGGTAALGCLVKDYFPEPVTVSWNSGALTSGVHTFPAVLQSSGLYSLSSVVTVPSSSLGTQTYICNVNHKPSNTKVDKKVEPKSCDKTHTCPPCPAPEAAGGPSVFLFPPKPKDTLMISRTPEVTCVVVDVSHEDPEVKFNWYVDGVEVHNAKTKPREEQYASTYRVVSVLTVLHQDWLNGKEYKCKVSNKALPAPIEKTISKAKGQPREPQVYTLPPSRCELTKNQVSLSCAVKGFYPSDIAVEWESNGQPENNYKTTPPVLDSDGSFFLVSKLTVDKSRWQQGNVFSCSVMHEALHNHYTQKSLSLSPDYKDDDDK EPKSSDKTHTCPPCPAPELLGGPSVFLFPPKPKDTLMISRTPEVTCVVVDVSHEDPEVKFNWYVDGVEVHNAKTKPREEQYNSTYRVVSVLTVLHQDWLNGKEYKCKVSNKALPAPIEKTISKAKGQPREPQVCTLPPSRDELTKNQVSLWCLVKGFYPSDIAVEWESNGQPENNYKTTPPVLDSDGSFFLYSKLTVDKSRWQQGNVFSCSVMHEALHNRYTQKSLSLSP light: DIVMTQSPLSLPVTPGEPASISCRSSQSLVHSNRNTYLHWYQQKPGQAPRLLIYKVSNRFSGVPDRFSGSGSGTDFTLKISRVEAEDVGVYYCGQGTQVPYTFGQGTKLEIKRTVAAPSVFIFPPSDEQLKSGTASVVCLLNNFYPREAKVQWKVDNALQSGNSQESVTEQDSKDSTYSLSSTLTLSKADYEKHKVYACEVTHQGLSSPVTKSFNRGEC | 1.2
CE115HA000 N54L one-arm antibody (antibody, human IgG1, kappa, L234A L235A, N297A, name in Kabat numbering) heavy: QVQLVESGGGVVQPGRSLRLSCAASGFTFSNAWMHWVRQAPGKGLEWVAQIKAKSNLYATYYAESVKGRFTISRDDSKNSLYLQMNSLKTEDTAVYYCRYVHYGAYYGVDAWGQGTTVTVSSASTKGPSVFPLAPSSKSTSGGTAALGCLVKDYFPEPVTVSWNSGALTSGVHTFPAVLQSSGLYSLSSVVTVPSSSLGTQTYICNVNHKPSNTKVDKKVEPKSCDKTHTCPPCPAPEAAGGPSVFLFPPKPKDTLMISRTPEVTCVVVDVSHEDPEVKFNWYVDGVEVHNAKTKPREEQYASTYRVVSVLTVLHQDWLNGKEYKCKVSNKALPAPIEKTISKAKGQPREPQVYTLPPSRCELTKNQVSLSCAVKGFYPSDIAVEWESNGQPENNYKTTPPVLDSDGSFFLVSKLTVDKSRWQQGNVFSCSVMHEALHNHYTQKSLSLSPDYKDDDDK EPKSSDKTHTCPPCPAPELLGGPSVFLFPPKPKDTLMISRTPEVTCVVVDVSHEDPEVKFNWYVDGVEVHNAKTKPREEQYNSTYRVVSVLTVLHQDWLNGKEYKCKVSNKALPAPIEKTISKAKGQPREPQVCTLPPSRDELTKNQVSLWCLVKGFYPSDIAVEWESNGQPENNYKTTPPVLDSDGSFFLYSKLTVDKSRWQQGNVFSCSVMHEALHNRYTQKSLSLSP light: DIVMTQSPLSLPVTPGEPASISCRSSQSLVHSNRNTYLHWYQQKPGQAPRLLIYKVSNRFSGVPDRFSGSGSGTDFTLKISRVEAEDVGVYYCGQGTQVPYTFGQGTKLEIKRTVAAPSVFIFPPSDEQLKSGTASVVCLLNNFYPREAKVQWKVDNALQSGNSQESVTEQDSKDSTYSLSSTLTLSKADYEKHKVYACEVTHQGLSSPVTKSFNRGEC | 0.94
CE115HA000 N54S one-arm antibody (antibody, human IgG1, kappa, L234A L235A, N297A, name in Kabat numbering) heavy: QVQLVESGGGVVQPGRSLRLSCAASGFTFSNAWMHWVRQAPGKGLEWVAQIKAKSNSYATYYAESVKGRFTISRDDSKNSLYLQMNSLKTEDTAVYYCRYVHYGAYYGVDAWGQGTTVTVSSASTKGPSVFPLAPSSKSTSGGTAALGCLVKDYFPEPVTVSWNSGALTSGVHTFPAVLQSSGLYSLSSVVTVPSSSLGTQTYICNVNHKPSNTKVDKKVEPKSCDKTHTCPPCPAPEAAGGPSVFLFPPKPKDTLMISRTPEVTCVVVDVSHEDPEVKFNWYVDGVEVHNAKTKPREEQYASTYRVVSVLTVLHQDWLNGKEYKCKVSNKALPAPIEKTISKAKGQPREPQVYTLPPSRCELTKNQVSLSCAVKGFYPSDIAVEWESNGQPENNYKTTPPVLDSDGSFFLVSKLTVDKSRWQQGNVFSCSVMHEALHNHYTQKSLSLSPDYKDDDDK EPKSSDKTHTCPPCPAPELLGGPSVFLFPPKPKDTLMISRTPEVTCVVVDVSHEDPEVKFNWYVDGVEVHNAKTKPREEQYNSTYRVVSVLTVLHQDWLNGKEYKCKVSNKALPAPIEKTISKAKGQPREPQVCTLPPSRDELTKNQVSLWCLVKGFYPSDIAVEWESNGQPENNYKTTPPVLDSDGSFFLYSKLTVDKSRWQQGNVFSCSVMHEALHNRYTQKSLSLSP light: DIVMTQSPLSLPVTPGEPASISCRSSQSLVHSNRNTYLHWYQQKPGQAPRLLIYKVSNRFSGVPDRFSGSGSGTDFTLKISRVEAEDVGVYYCGQGTQVPYTFGQGTKLEIKRTVAAPSVFIFPPSDEQLKSGTASVVCLLNNFYPREAKVQWKVDNALQSGNSQESVTEQDSKDSTYSLSSTLTLSKADYEKHKVYACEVTHQGLSSPVTKSFNRGEC | 0.84
